Data as given in paper PMC4685450, “Crystal Structure of Human SSRP1 Middle Domain Reveals a Role in DNA Binding”.

Experiments:
Details in all cases: protein: recombinant; tags: N-terminal 6xHis; blunt
SSRP1-M [1] = target: T1, SSRP1-M (Homo sapiens, UniProt Q08945 196-430); assay: EMSA (agarose and native PAGE); oligomerized complex in wells; EMSA buffer, salt, pH and temperature not given in the material; proteins purified in 20 mM Tris-HCl, 200 mM NaCl, pH 7.0
SSRP1-C = SSRP1-C (Homo sapiens, UniProt Q08945 513-709); assay: EMSA (agarose); EMSA buffer, salt, pH and temperature not given in the material; proteins purified in 20 mM Tris-HCl, 200 mM NaCl, pH 7.0
SSRP1-C, sequence (Q08945 513-709): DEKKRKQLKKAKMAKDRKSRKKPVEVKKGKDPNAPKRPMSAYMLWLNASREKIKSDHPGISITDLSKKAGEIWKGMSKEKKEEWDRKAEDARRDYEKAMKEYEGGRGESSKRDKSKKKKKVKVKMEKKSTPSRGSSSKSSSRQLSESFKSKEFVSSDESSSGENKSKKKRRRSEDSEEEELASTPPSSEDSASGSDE

SSRP1-N = SSRP1-N (Homo sapiens, UniProt Q08945 1-176); assay: as above
SSRP1-N, sequence (Q08945 1-176): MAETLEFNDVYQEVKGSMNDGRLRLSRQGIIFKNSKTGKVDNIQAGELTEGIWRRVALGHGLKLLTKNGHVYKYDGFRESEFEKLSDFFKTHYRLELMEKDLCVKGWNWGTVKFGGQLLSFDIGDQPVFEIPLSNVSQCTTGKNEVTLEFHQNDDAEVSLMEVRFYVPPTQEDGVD

SSRP1-M [2] = target: T1, SSRP1-M; assay: EMSA; no obvious difference from linker DNA; EMSA buffer, salt, pH and temperature not given in the material; proteins purified in 20 mM Tris-HCl, 200 mM NaCl, pH 7.0

T1 sequence (Q08945 196-430): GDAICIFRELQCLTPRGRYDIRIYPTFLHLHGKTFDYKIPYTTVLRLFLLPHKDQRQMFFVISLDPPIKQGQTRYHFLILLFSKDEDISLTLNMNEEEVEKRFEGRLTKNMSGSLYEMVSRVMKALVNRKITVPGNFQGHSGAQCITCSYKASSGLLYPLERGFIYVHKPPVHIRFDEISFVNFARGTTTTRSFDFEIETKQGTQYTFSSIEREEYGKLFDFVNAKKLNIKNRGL

| Binder | binding result (SSRP1-M [1]) | binding result (SSRP1-C) | binding result (SSRP1-N) | binding result (SSRP1-M [2]) |
| --- | --- | --- | --- | --- |
| 30-bp linker dsDNA (dsDNA) DNA 1: TCCAGTGCCGGTGTCGCTTGGGTCCCGAGG DNA 2: CCTCGGGACCCAAGCGACACCGGCACTGGA | binds | binds | no binding |  |
| GC-rich dsDNA (dsDNA) DNA 1: GCGGCCCGCGCCCGCCGCCCCGCCGCGGCC DNA 2: GGCCGCGGCGGGGCGGCGGGCGCGGGCCGC |  |  |  | binds |
| AT-rich dsDNA (dsDNA) DNA 1: ATAATTTATATTTATTATTTTATTATAATT DNA 2: AATTATAATAAAATAATAAATATAAATTAT |  |  |  | binds |
